Test results as given in publication PMC3925968, “Single molecule FRET reveals pore size and opening mechanism of a mechano-sensitive ion channel” (eLife, 2014).
Numbering of substitutions follows the chain as printed.

B1: E. coli MscL (EcoMscL) M42C (natural protein, UniProt P0A742 1-136, looked up)
chain: MSIIKEFREFAMRGNVVDLAVGVIIGAAFGKIVSSLVADIICPPLGLLIGGIDFKQFAVTLRDAQGDIPAVVMHYGVFIQNVFDFLIVAFAIFMAIKLINKLNRKKEEPAAAPAPTKEEVLLTEIRDLLKEQNNRS
modifications: Alexa Fluor 488 and/or Alexa Fluor 568 maleimide on the introduced cysteine (stochastic labelling)
notes: Mechanosensitive channel of large conductance MscL, Escherichia coli, single cysteine mutant on TM1; The MscL gene was cloned into pQE-32 as a BamHI-SalI fragment; 5% labeled channels were mixed with 95% unlabeled ones for reconstitution; also called mechanosensitive channel of large conductance; source: E. coli M15, purified from DDM solubilized membranes (TALON, FPLC Superdex 200), …
B2: E. coli MscL (EcoMscL) I25C (natural protein, UniProt P0A742 1-136, looked up)
chain: B1 chain with I25C, C42M
modifications: Alexa Fluor 488 and/or Alexa Fluor 568 maleimide on the introduced cysteine (stochastic labelling)
notes: Mechanosensitive channel of large conductance MscL, Escherichia coli, single cysteine mutant on TM1 near the pore constriction; Same construct as m1 apart from the cysteine position; Pentamer on cited work; some hexamers not excluded; source: E. coli M15, purified from DDM solubilized membranes (TALON, FPLC Superdex 200), reconstituted into liposomes; not shown: His6, N-terminal, kept
B3: E. coli MscL (EcoMscL) Y75C (natural protein, UniProt P0A742 1-136, looked up)
chain: B1 chain with C42M, Y75C
modifications: Alexa Fluor 488 and/or Alexa Fluor 568 maleimide on the introduced cysteine (stochastic labelling)
notes: Mechanosensitive channel of large conductance MscL, Escherichia coli, single cysteine mutant on TM2; Same construct as m1 apart from the cysteine position; Pentamer on cited work; some hexamers not excluded; source: E. coli M15, purified from DDM solubilized membranes (TALON, FPLC Superdex 200), reconstituted into liposomes; not shown: His6, N-terminal, kept
B4: E. coli MscL (EcoMscL) V82C (natural protein, UniProt P0A742 1-136, looked up)
chain: B1 chain with C42M, V82C
modifications: Alexa Fluor 488 and/or Alexa Fluor 568 maleimide on the introduced cysteine (stochastic labelling)
notes: as for B3
B5: E. coli MscL (EcoMscL) Q80C (natural protein, UniProt P0A742 1-136, looked up)
chain: B1 chain with C42M, Q80C
modifications: Alexa Fluor 488 and/or Alexa Fluor 568 maleimide on the introduced cysteine (stochastic labelling)
notes: as for B3
B6: E. coli MscL (EcoMscL) A27C (natural protein, UniProt P0A742 1-136, looked up)
chain: B1 chain with A27C, C42M
modifications: Alexa Fluor 488 and/or Alexa Fluor 568 maleimide on the introduced cysteine (stochastic labelling)
notes: Mechanosensitive channel of large conductance MscL, Escherichia coli, single cysteine mutant on TM1; Same construct as m1 apart from the cysteine position; Pentamer on cited work; some hexamers not excluded; source: E. coli M15, purified from DDM solubilized membranes (TALON, FPLC Superdex 200), reconstituted into liposomes; not shown: His6, N-terminal, kept

Target: the molecule itself
Assay: FRET or BRET; single molecule FRET (TIRF) between one AF488 donor and one AF568 acceptor on the single cysteines of two subunits of one channel; channels in ~50 nm POPC liposomes with 2% BPE, immobilised on a coverslip by biotin-neutravidin; without and with 25% LPC

Binding result, binds:
B1
B2
B3
B4
B5
B6
